Laboratory results taken from patent US12076390 (Dana-Farber, dated 2024).

Biological target: HA on infectious virus A/Brisbane/10/07 (H3N2-BR07) (influenza A virus A/Brisbane/10/07 …)
Experiment: cell-based or functional assay

B1: 3I14 VLD94N IgG1 (antibody, V domains shown)
VH: QVQLLESGGGVVQPGRSLRLSCAASGFTFSNYGMHWVRQAPGKGLEWVAIISFDGSKKYYANSVKGRSTISRDNSKNTLSLQMNSLGPEDTALYYCAKLPSPYYFDSRFVWVAASAFHFWGQGILVTVSS
VL: NFMLTQPPSASGTPGQRVTISCSGSSSNIGGNTVHWFQQLPGTAPKLLIYTNSLRPSGVPDRFSGSKSGTSASLAISGLQSEDEADYYCAAWDNSLNGQVFGGGTKLTVL
  IC50, neutralization of infectious H3-BR07 virus: 0.337 µg/mL
